# According to US20100184651A1, “TARGETED FUSION PROTEINS FOR CANCER THERAPY” (Dabur Pharma Limited, priority 2005, published 2010):
# How the values were obtained:
# [1] = target: T1, VPAC-1 receptors (Homo sapiens, UniProt P32241); assay: Receptor targeting: competition with VIP (10-28) antagonist, MTT assay in HT29 cells; type: cell-based; settings: 24 h
# T1 construct: endogenous in cells; host or cells: HT29 colon carcinoma cells
# T1 sequence (P32241 31-457): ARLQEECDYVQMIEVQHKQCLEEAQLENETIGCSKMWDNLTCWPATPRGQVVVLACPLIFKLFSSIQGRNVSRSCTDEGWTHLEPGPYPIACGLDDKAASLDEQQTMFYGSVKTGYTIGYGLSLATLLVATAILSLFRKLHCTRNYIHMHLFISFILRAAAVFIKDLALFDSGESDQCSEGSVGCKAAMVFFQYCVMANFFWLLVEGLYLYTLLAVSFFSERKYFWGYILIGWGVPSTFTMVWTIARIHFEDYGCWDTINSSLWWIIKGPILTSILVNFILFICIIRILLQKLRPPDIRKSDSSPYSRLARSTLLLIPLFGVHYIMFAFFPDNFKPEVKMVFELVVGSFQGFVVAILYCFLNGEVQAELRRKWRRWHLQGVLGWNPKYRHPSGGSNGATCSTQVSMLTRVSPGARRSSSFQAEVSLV
# Description: To further confirm the receptor mediated targeting of the protein, HT29 cells were pre-incubated with varying concentrations of VIP antagonist, VIP (10-28) peptide [Gozes I., et al., Cell Mol. Neurobiol., 1995, 15, 675] for 30 minutes followed by treatment with 10 μM of fusion protein. […] Similar, observation was made when the cells were treated with 5 μM of fusion protein, although this time the receptors were saturated by 25 μM concentration of the antagonist (FIG. 14b).
# Cells were seeded in 96-well microplates, followed by the addition of various concentrations of the VIP antagonist VIP (10-28) Fragment for 30 minutes, followed by the addition of fusion protein at a fixed concentration. VIP (10-28) Fragment was allowed to remain in culture wells for whole of the experiment. After a 24-hour incubation, the MTT assay was performed as above.
# [2] = target: T2, VPAC 1 receptors expressed on A549 cells (Homo sapiens, UniProt P32241); assay: Immunocytochemical staining for cell surface receptors on A549 cells; type: binding; settings: A549 cells pre-treated, then anti-VPAC-1 immunostaining
# T2 construct: the receptors were overexpressed in the A549 cell line; endogenous in cells; host or cells: A549 human lung carcinoma cells (acetone-fixed on slides)
# T2 sequence (P32241 31-457): T1 sequence (P32241 31-457)
# Description: Similarly, when, the cells were treated with fusion protein and immuno-stained with anti-BID. […] A similar observation was made when A549 cells were pre-treated with VIP antagonist, VIP (10-28) followed by fusion protein and immunostaining with anti-BID (FIG. 15e).
# Cultured (A549 human lung carcinoma) cells were detached with trypsin/EDTA and pelleted by low-speed centrifugation. The cells were resuspended in PBS. Cell suspensions were coated onto poly-L-lysine coated glass slides, dried and then fixed for 10 min in acetone at −20° C. After drying for 2 h, slides were rinsed in PBS and then treated for 5 min with water/H2O2 in order to block endogenous peroxidase. Slides were again rinsed again in PBS and treated with normal rabbit and goat serum to block background staining. Slides were then incubated with antagonist, VIP(10-28) and/or fusion protein for 1 hr each. Slides were again washed with PBS and incubated with rabbit-anti-BID antibody (dilution 1:1000) or goat anti-VPAC 1 antibody (dilution 1:1000) for 1 h. Slides were again washed in PBS and incubated with […] IgG peroxidase labelled antibodies for anti-BID and anti-VPAC 1 primary antibodies respectively, for 1 h followed by addition of the 3,3′-diaminobenzidine-tetrachloride (DAB) substrate and hydrogen peroxide in PBS. […]
substance,measurement,setting,value
"VIP (10-28) peptide: VIP antagonist, VIP (10-28) peptide (YTRLRKQMAVKKYLNSILN)",concentration of antagonist giving complete loss of cytotoxicity of fusion protein,"[1]; HT29 pre-incubated 30 minutes with antagonist, then 10 μM of fusion protein",100 µM
same,concentration of antagonist at which the receptors were saturated (loss of cytotoxicity),"[1]; HT29 pre-incubated with antagonist, then 5 μM of fusion protein",25 µM
same,availability of VPAC-1 receptors to anti VPAC-1 after pre-treatment,[2],significant loss in the immunostained cell population
